Test results published in article PMC9945446, “DNMT1 inhibition by pUG-fold quadruplex RNA”.

How the values were obtained:
[1] = target: T1, DNMT1 (human, UniProt P26358 1-1616); experiment: EMSA; 100 mM KCl; undetectable; 50 mM Tris-HCl pH 7.5, 100 mM KCl (or LiCl), 2.5 mM MgCl2, 0.1 mM ZnCl2, 2 mM BME, 0.05% NP40, 5% glycerol, 0.1 mg/mL BSA, 0.1 mg/mL yeast tRNA; 30 C 1 h; 1% agarose gel in 1x TBE at 4 C; conditions: protein: recombinant; tags: MBP tag cleaved with PreScission protease; label: 5' 32P; unstructured
T1 sequence (P26358 whole entry): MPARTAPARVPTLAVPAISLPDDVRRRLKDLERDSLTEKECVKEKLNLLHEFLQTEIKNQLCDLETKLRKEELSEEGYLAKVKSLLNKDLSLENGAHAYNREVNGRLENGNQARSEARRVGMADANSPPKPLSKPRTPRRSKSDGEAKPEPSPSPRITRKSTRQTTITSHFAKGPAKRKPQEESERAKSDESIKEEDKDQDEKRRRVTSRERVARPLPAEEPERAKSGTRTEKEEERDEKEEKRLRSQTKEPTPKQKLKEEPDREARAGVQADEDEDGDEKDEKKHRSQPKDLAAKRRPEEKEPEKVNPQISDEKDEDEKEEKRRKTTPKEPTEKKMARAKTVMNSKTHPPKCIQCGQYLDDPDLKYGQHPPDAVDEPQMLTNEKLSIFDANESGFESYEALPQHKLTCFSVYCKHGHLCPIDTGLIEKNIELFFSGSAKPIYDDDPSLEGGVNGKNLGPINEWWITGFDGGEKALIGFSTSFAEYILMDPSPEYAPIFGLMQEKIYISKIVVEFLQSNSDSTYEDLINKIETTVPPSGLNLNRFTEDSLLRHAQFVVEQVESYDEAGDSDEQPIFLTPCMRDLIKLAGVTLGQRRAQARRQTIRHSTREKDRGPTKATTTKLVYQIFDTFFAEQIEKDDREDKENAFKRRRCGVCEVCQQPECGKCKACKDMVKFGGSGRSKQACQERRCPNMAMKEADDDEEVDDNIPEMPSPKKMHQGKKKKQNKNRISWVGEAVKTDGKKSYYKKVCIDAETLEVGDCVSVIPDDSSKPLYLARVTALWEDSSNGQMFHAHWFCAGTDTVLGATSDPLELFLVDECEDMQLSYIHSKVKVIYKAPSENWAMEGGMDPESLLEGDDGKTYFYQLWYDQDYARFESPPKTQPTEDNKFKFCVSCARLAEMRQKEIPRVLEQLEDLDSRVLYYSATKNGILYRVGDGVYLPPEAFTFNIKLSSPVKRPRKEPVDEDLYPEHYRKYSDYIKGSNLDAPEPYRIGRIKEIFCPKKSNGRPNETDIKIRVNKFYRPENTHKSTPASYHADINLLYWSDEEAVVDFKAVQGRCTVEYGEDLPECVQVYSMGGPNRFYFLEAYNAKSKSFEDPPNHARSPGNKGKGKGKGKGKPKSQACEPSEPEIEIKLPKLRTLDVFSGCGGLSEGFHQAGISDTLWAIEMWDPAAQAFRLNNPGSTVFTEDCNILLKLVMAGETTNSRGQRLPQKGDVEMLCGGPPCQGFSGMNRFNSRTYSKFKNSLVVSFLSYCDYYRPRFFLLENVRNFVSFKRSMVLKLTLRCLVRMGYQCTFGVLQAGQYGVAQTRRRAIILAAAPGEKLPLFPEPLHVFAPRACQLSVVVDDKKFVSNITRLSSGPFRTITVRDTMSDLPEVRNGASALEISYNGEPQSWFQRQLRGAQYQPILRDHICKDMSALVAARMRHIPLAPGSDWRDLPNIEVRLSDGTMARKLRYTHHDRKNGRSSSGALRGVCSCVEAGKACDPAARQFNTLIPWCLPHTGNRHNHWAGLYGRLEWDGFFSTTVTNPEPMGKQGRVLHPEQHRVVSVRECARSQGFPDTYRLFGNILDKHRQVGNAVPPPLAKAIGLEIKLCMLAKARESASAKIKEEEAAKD

[2] = target: T1, DNMT1; experiment: EMSA; 100 mM KCl; 50 mM Tris-HCl pH 7.5, 100 mM KCl (or LiCl), 2.5 mM MgCl2, 0.1 mM ZnCl2, 2 mM BME, 0.05% NP40, 5% glycerol, 0.1 mg/mL BSA, 0.1 mg/mL yeast tRNA; 30 C 1 h; 1% agarose gel in 1x TBE at 4 C; conditions: protein: recombinant, tags: MBP tag cleaved with PreScission protease; for Kd: label: 5' 32P
[3] = target: T1, DNMT1; experiment: as above; conditions: protein: recombinant; tags: MBP tag cleaved with PreScission protease; label: 5' 32P; canonical G4
[4] = target: T1, DNMT1; experiment: as above; conditions: protein: recombinant; tags: MBP tag cleaved with PreScission protease; label: 5' 32P; one pUG-fold in K+

B1: (A)40 (ssRNA)
RNA: AAAAAAAAAAAAAAAAAAAAAAAAAAAAAAAAAAAAAAAA
[1]
  binding result: no binding

B2: (GU)20 (structured_RNA)
RNA: GUGUGUGUGUGUGUGUGUGUGUGUGUGUGUGUGUGUGUGU
[2]; pUG-fold (noncanonical G4) in K+
  Kd: 69 nM

B3: Hemimethylated DNA substrate (dsDNA)
DNA 1: TACGTATCCGTATCCGGTTACGTATCCGAATCCGTACCGT
DNA 2: ACGGTACGGATTCGGATACGTAACCGGATACGGATACGTA
modifications: 5mC at strand 1 positions 3,9,15,21,27,33,38
[2]; label: 32P end label, blunt
  binding result: binds

B4: (GGAA)10 (structured_RNA)
RNA: GGAAGGAAGGAAGGAAGGAAGGAAGGAAGGAAGGAAGGAA
[3]
  binding signal: 3 fold weaker than (GU)20

B5: (GU)30 (structured_RNA)
RNA: GUGUGUGUGUGUGUGUGUGUGUGUGUGUGUGUGUGUGUGUGUGUGUGUGUGUGUGUGUGU
[2]; pUG-fold, possibly two
  Kd: 13 nM

B6: (GU)12 (structured_RNA)
RNA: GUGUGUGUGUGUGUGUGUGUGUGU
[4]
  binding signal: 5 fold weaker than (GU)20
